What was measured:
[1] = target: His10-ΔN46-B4GALNT1 (human B4GALNT1 lumenal domain construct ΔN46) (human) (UniProt Q00973); assay: non-reducing SDS-PAGE; purified protein in SDS loading dye without or with 50 mM DTT, heated 5 min at 95 °C, NuPAGE 4-12% Bis-Tris gel, Coomassie stain; dimer seen without reducing agent
[2] = target: the molecule itself; assay: as above

stoichiometry N [1] | Molecule | stoichiometry N [2]
2 | His10-ΔN46-B4GALNT1 (human B4GALNT1 lumenal domain construct ΔN46) (from UniProt Q00973 47-533) (domain or fragment) | –
– | B4GALNT1 lumenal domain construct ΔN27 (entire lumenal domain, human) (domain or fragment, N-linked glycosylation (3 predicted sites, positions not given)) HHHHHHHHHHGTRDAPGLRLPLAPWAPPQSPRRPELPDLAPEPRYAHIPVRIKEQVVGLLAWNNCSCESSGGGLPLPFQKQVRAIDLTKAFDPAELRAASATREQEFQAFLSRSQSPADQLLIAPANSPLQYPLQGVEVQPLRSILVPGLSLQAASGQEVYQVNLTASLGTWDVAGEVTGVTLTGEGQADLTLVSPGLDQLNRQLQLVTYSSRSYQTNTADTVRFSTEGHEAAFTIRIRHPPNPRLYPPGSLPQGAQYNISALVTIATKTFLRYDRLRALITSIRRFYPTVTVVIADDSDKPERVSGPYVEHYLMPFGKGWFAGRNLAVSQVTTKYVLWVDDDFVFTARTRLERLVDVLERTPLDLVGGAVREISGFATTYRQLLSVEPGAPGLGNCLRQRRGFHHELVGFPGCVVTDGVVNFFLARTDKVREVGFDPRLSRVAHLEFFLDGLGSLRVGSCSDVVVDHASKLKLPWTSRDAGAETYARYRYPGSLDESQMAKHRLLFFKHRLQCMTSQ | 2

— publication PMC12217166, “Conformational dynamics and membrane insertion mechanism of B4GALNT1 in ganglioside synthesis” (Nature Communications, 2025)
